Assay results: article PMC11077065

Key:
[1] = molecular target: PhiPA3 ChmC (Chimallin C, gp61), full-length (bacteriophage PhiPA3); experiment: SEC-MALS
[2] = molecular target: PhiPA3 ChmC-ΔC (residues 204-251 removed) (bacteriophage PhiPA3); experiment: SEC-MALS

Row | Substance | stoichiometry N [1] | stoichiometry N [2]
1 | PhiPA3 ChmC (Chimallin C, gp61), full-length (natural protein) | 4 | 
2 | PhiPA3 ChmC-ΔC (residues 204-251 removed) (domain or fragment) |  | 4
